{"source": "paper PMC10130221", "assay_in_all_cases": "filter binding", "key": {"[1]": {"tested_on": "TrmB D144A (Escherichia coli)", "conditions": "none (in vitro transcribed), becomes m7G46 during incubation with SAM, TAKEM4: 50 mM Tris-HCl pH 7.5, 70 mM NH4Cl, 30 mM KCl, 1 mM EDTA, 4 mM MgCl2, filter binding 20 nM tRNA, 10 min (temperature not given in the material) …"}, "[2]": {"tested_on": "TrmB R155A (Escherichia coli)", "conditions": "max. about 30% bound, none (in vitro transcribed), becomes m7G46 during incubation with SAM, TAKEM4: 50 mM Tris-HCl pH 7.5, 70 mM NH4Cl, 30 mM KCl, 1 mM EDTA, 4 mM MgCl2, filter binding 20 nM tRNA, 10 min (temperature not given in the material) …"}, "[3]": {"tested_on": "TrmB R26A (Escherichia coli)", "conditions": "none (in vitro transcribed), becomes m7G46 during incubation with SAM, TAKEM4: 50 mM Tris-HCl pH 7.5, 70 mM NH4Cl, 30 mM KCl, 1 mM EDTA, 4 mM MgCl2, filter binding 20 nM tRNA, 10 min (temperature not given in the material) …"}, "[4]": {"tested_on": "TrmB T217A (Escherichia coli)", "conditions": "none (in vitro transcribed), becomes m7G46 during incubation with SAM, TAKEM4: 50 mM Tris-HCl pH 7.5, 70 mM NH4Cl, 30 mM KCl, 1 mM EDTA, 4 mM MgCl2, filter binding 20 nM tRNA, 10 min (temperature not given in the material) …"}, "[5]": {"tested_on": "TrmB WT (Escherichia coli)", "conditions": "none (in vitro transcribed), becomes m7G46 during incubation with SAM, TAKEM4: 50 mM Tris-HCl pH 7.5, 70 mM NH4Cl, 30 mM KCl, 1 mM EDTA, 4 mM MgCl2, filter binding 20 nM tRNA, 10 min (temperature not given in the material) …"}}, "note": "pKd: −log10 of the molar value.", "data": [{"substance": "[3H]tRNAPhe (unmodified transcript)", "values": [{"measurement": "pKd", "setting": "[1]; 50 uM SAM", "result": 6.10}, {"measurement": "pKd", "setting": "[1]; no SAM", "result": 5.60}, {"measurement": "pKd", "setting": "[2]; 50 uM SAM", "result": 5.24}, {"measurement": "pKd", "setting": "[2]; no SAM", "result": 5.00}, {"measurement": "pKd", "setting": "[3]; 50 uM SAM", "result": 5.29}, {"measurement": "pKd", "setting": "[3]; no SAM, max. about 20% bound", "result": 5.19}, {"measurement": "pKd", "setting": "[4]; 50 uM SAM", "result": 5.59}, {"measurement": "pKd", "setting": "[4]; no SAM", "result": 5.27}, {"measurement": "pKd", "setting": "[5]; 50 uM SAM, tRNA becomes m7G46 product in 10 min", "result": 5.68}, {"measurement": "pKd", "setting": "[5]; no SAM", "result": 5.18}]}]}
